Values quoted from earlier work in patent US12544428B2, “Controlled-release CNP agonists with reduced side-effects” (ASCENDIS PHARMA GROWTH DISORDERS A/S, priority 2016, dated 2026).
Bridge positions count the residues as written; N and C are the ends. Ends that are not written are not given here.

Conditions: Phase 1 study, healthy volunteers; cited from earlier work

## BMN-111: a CNP variant with increased NEP resistance in development for the treatment of achondroplasia (PGQEHPNARKYKGANKKGLSKGCFGLKLDRIGSMSGLGC; disulfide 23-39; chains of the INN, looked up)
  hypotension: mild hypotension
